# Test results reported in patent US20250230255A1 (BIOTHEUS, published 2025).
# Read-outs that look alike come from different tables or passages of the source.
# T1: cynomolgus PD-1 on cells (cynomolgus, UniProt Q15116 25-288 (human entry))
# T1 construct: also called CHO-cynoPD1 cell
# T1 chain: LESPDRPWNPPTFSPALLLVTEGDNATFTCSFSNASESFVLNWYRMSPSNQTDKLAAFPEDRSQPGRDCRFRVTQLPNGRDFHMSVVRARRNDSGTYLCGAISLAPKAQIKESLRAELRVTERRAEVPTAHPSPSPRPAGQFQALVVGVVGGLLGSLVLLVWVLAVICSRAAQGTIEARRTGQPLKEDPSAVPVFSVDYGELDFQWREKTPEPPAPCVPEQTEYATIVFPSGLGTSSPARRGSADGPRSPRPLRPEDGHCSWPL
# T2: human CD39 on cells (human, UniProt P49961 1-510)
# T2 sequence: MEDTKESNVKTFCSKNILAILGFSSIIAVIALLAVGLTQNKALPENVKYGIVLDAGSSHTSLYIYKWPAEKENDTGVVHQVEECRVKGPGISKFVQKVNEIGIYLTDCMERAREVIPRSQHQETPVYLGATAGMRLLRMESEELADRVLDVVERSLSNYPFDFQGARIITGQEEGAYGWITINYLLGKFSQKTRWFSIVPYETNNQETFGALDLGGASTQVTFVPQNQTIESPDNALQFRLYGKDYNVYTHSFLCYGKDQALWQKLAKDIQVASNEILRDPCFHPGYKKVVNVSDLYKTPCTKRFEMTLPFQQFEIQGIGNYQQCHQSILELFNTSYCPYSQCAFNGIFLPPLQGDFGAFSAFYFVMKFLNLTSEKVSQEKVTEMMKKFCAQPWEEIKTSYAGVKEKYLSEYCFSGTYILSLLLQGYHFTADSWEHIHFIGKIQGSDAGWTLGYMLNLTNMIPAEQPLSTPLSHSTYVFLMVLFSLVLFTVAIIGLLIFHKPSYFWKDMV
# T3: cynomolgus CD39 on cells (cynomolgus, UniProt P49961 6-510 (human entry))
# T3 construct: also called cyCD39; CHO-cyCD39 cells
# T3 chain: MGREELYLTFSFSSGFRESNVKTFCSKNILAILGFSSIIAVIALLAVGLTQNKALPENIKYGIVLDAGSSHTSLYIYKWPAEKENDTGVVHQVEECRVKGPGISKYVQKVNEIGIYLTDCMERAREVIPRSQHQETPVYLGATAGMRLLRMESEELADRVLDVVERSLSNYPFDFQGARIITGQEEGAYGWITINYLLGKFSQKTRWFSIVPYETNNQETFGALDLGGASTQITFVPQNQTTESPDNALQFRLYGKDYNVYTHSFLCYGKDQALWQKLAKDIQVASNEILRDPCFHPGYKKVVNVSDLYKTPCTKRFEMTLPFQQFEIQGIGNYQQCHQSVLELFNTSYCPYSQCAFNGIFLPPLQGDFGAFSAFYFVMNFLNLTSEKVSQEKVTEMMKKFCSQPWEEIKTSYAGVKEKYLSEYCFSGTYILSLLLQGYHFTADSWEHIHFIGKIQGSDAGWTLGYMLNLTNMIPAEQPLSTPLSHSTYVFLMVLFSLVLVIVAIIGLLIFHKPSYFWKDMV
# T4: human CD39 (recombinant protein in solution) (human, UniProt P49961 38-478, limits assumed)
# T4 construct: also called soluble human CD39; soluble CD39
# T4 sequence: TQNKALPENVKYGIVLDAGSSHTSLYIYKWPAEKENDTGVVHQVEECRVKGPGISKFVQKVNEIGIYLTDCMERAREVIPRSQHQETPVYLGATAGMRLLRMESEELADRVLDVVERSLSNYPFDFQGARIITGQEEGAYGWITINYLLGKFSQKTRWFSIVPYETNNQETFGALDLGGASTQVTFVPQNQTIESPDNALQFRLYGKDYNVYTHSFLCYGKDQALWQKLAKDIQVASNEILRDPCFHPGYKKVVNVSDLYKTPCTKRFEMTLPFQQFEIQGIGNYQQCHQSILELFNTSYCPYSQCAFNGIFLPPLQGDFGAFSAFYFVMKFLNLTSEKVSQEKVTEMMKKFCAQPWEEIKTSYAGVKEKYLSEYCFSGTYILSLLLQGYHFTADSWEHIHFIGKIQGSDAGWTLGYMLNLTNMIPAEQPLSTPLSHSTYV
# B1: anti-PD1 antibody ADI-54872 (antibody, V domains shown)
# VH: EVQLVQSGAEVKKPGASVKVSCKASGYTFTEYYIYWVRQAPGQGLEWIGGINPSNGGTNFNEKFKPRVTMTVDTSTSTAYMELSSLRSEDTAVYYCTVRDFRFDKGFKYWGQGTLVTVSS
# VL: DIVLTQSPATLSLSPGERATLSCRASKSVSTSGLNYVHWYQRKPGQAPRLLIYLGSYLDSGVPARFSGSGSGTDFTLTISSLEPEDFAVYYCQQSWELPLTFGGGTKVEIK
# notes: also called anti-PD-1 monoclonal antibody molecule
# B2: I394 BMK (antibody, human IgG1, kappa, V domains shown)
# VH: EVQLQQSGPELVKPGASVKMSCKASGYTFTDYNMHWVKQSHGRTLEWIGYIVPLNGGSTFNQKFKGRATLTVNTSSRTAYMELRSLTSEDSAAYYCARGGTRFAYWGQGTLVTVSA
# VL: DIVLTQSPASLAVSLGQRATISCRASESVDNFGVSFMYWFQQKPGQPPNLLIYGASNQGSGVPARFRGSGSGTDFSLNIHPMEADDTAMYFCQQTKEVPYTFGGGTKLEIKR
# notes: also called control antibody
# B3: Bi307/308 (bispecific antibody, human IgG1, kappa, L234A L235A)
# heavy: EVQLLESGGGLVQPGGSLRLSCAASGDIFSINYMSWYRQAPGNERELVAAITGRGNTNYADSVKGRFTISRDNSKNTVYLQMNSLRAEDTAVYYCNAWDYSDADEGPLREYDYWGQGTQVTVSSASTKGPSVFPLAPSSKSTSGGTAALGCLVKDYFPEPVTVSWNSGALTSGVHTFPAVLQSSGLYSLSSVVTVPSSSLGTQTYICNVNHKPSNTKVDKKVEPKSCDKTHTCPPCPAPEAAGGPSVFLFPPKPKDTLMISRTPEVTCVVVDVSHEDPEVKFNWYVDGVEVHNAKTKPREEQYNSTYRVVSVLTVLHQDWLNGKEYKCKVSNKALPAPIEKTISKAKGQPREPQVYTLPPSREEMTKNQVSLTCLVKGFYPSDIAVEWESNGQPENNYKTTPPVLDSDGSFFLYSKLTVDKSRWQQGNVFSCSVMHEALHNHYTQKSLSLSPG
# light: EVQLLESGGGLVQPGGSLRLSCAVSRGTFSEYSMSWFRQAPGKEREFVTAISGFGHITHYADSVKGRFTISRDNSKNTVYLQMNSLRAEDTAVYYCAAAWQTSPRRMMQMAGSITWGQGTQVTVSSRTVAAPSVFIFPPSDEQLKSGTASVVCLLNNFYPREAKVQWKVDNALQSGNSQESVTEQDSKDSTYSLSSTLTLSKADYEKHKVYACEVTHQGLSSPVTKSFNRGEC
# notes: also called bi-epitopic anti-CD39 antibody resembling IgG structure
# B4: anti-PD1×CD39 antibody (bispecific antibody, human IgG1, kappa)
# heavy: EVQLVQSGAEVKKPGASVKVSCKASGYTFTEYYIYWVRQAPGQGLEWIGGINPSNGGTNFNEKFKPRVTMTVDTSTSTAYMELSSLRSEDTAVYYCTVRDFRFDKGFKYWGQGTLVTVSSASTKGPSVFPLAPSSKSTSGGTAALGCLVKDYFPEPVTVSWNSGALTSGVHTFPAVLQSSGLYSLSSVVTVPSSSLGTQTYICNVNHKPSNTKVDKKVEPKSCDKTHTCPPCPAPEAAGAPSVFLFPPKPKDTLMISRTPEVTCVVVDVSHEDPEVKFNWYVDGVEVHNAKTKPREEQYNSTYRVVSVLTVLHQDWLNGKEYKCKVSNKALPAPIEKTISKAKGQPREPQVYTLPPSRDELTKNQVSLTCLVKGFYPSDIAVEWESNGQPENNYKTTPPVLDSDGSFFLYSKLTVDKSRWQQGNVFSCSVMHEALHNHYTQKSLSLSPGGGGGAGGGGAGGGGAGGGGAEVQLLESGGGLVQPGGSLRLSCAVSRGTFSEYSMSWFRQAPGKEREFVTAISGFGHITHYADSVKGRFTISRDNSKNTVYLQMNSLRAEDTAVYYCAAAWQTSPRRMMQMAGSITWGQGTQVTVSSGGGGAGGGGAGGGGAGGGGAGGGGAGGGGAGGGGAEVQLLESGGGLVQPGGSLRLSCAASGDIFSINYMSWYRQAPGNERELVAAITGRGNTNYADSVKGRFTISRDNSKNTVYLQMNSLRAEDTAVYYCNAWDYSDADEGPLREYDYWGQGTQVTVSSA
# light: DIVLTQSPATLSLSPGERATLSCRASKSVSTSGLNYVHWYQRKPGQAPRLLIYLGSYLDSGVPARFSGSGSGTDFTLTISSLEPEDFAVYYCQQSWELPLTFGGGTKVEIKRTVAAPSVFIFPPSDEQLKSGTASVVCLLNNFYPREAKVQWKVDNALQSGNSQESVTEQDSKDSTYSLSSTLTLSKADYEKHKVYACEVTHQGLSSPVTKSFNRGEC
# notes: also called Anti-PD1xCD39 antibody
# Tests used:
# [1] = biological target: PD-1 (of the Promega PD-1/PD-L1 blockade bioassay) (UniProt Q15116 25-288, limits assumed); assay: cell-based or functional assay
# human PD-1 on cells = biological target: T5, human PD-1 on cells (human, UniProt Q15116 25-288); assay: flow cytometry on CHOS cells overexpressing human PD1, median fluorescence intensity PE-A
# T5 construct: also called CHO-hPD1 cell
# cynomolgus PD-1 on cells = biological target: T1, cynomolgus PD-1 on cells; assay: flow cytometry on CHOS cells overexpressing cynomolgus PD1, median fluorescence intensity PE-A
# human CD39 on cells [2] = biological target: T2, human CD39 on cells; assay: cell-based or functional assay
# cynomolgus CD39 on cells = biological target: T3, cynomolgus CD39 on cells; assay: flow cytometry on CHO-cyCD39 cells, MFI titration
# [3] = biological target: T4, human CD39 (recombinant protein in …); assay: BLI (ForteBio), method of Example 3, human CD39 in solution
# Description: (§1) ForteBio affinity test was conducted according to the existing methods (Estep, P et al., High throughput solution based measurement of antibody-antigen affinity and affinity binding. MAbs, 2013.5 (2): p. 270-8). In short, the sensor is balanced offline in the analysis buffer for 30 min, and then tested online for 60 s to establish baseline. After that, the AHQ sensor is online loaded with the above-obtained purified antibody, and put into 100 nM human CD39 (SEQ ID NO: 28) for 5 min, and then transferred the sensor to PBS for dissociation for 5 min. A 1:1 binding model is used for the dynamic analysis.
# The humanized sequences are subjected to the humanized antibody vector construction, expression and purification according to the method described in Example 2. […] The purified humanized antibodies were subjected to the affinity test at protein level according to the method described in Example 3.
# human CD39 on cells [4] = biological target: T2, human CD39 on cells; assay: flow cytometry on CHO-hCD39 cells, MFI titration
# human CD39 on cells [5] = biological target: T2, human CD39 on cells; assay: cell-based or functional assay; remark: listed apart in the source
# [6] = biological target: T4, human CD39 (recombinant protein in …); assay: BLI (ForteBio), antibody loaded on AHQ sensor, 100 nM human CD39 in solution, 1:1 model
# Description: as §1
# human CD39 on cells [7] = biological target: T2, human CD39 on cells; assay: cell-based or functional assay; remark: listed apart in the source
# [8] = biological target: T4, human CD39 (recombinant protein in …); assay: cell-based or functional assay
# [9] = biological target: T4, human CD39 (recombinant protein in …); assay: cell-based or functional assay; remark: listed apart in the source
# human CD39 on cells [10] = biological target: T2, human CD39 on cells; assay: cell-based or functional assay; remark: listed apart in the source
# [11] = biological target: T4, human CD39 (recombinant protein in …); assay: BLI (ForteBio), method of Example 3, human CD39 in solution; remark: listed apart in the source
# Description: as §1
# T5 sequence (Q15116 25-288 limits assumed): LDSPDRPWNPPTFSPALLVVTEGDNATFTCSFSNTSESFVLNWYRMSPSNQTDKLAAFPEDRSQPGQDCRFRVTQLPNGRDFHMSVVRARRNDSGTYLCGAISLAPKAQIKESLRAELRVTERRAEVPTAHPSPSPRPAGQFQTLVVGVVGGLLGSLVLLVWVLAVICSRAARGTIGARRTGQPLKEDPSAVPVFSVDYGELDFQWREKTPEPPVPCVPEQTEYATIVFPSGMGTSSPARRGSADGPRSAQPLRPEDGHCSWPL
# PD-1 (of the Promega PD-1/PD-L1 blockade bioassay), sequence (Q15116 25-288 limits assumed): as above
binder,measurement,setting,value
B1,EC50 (read off the curve),[1],~0.2 nM
same,EC50 (read off the curve),human PD-1 on cells,~10 nM
same,EC50 (read off the curve),cynomolgus PD-1 on cells,~10 nM
B2,EC50 of blocking CD39 enzyme activity in PBMC system,human CD39 on cells [2],0.338 nM
same,EC50,cynomolgus CD39 on cells,5.53 nM
same,Kd,[3],1.5 nM
same,koff,[3],0.000371 s⁻¹
same,kon,[3],245000 M⁻¹ s⁻¹
same,EC50,human CD39 on cells [4],4.76 nM
same,EC50 of blocking CD39 enzyme activity of human CD39 overexpression cells,human CD39 on cells [5],1.99 nM
same,Kd,[6],0.855 nM
same,koff,[6],0.0002 s⁻¹
same,kon,[6],285000 M⁻¹ s⁻¹
same,EC50 of blocking CD39 enzyme activity in PBMC system,human CD39 on cells [7],10.1 nM
same,EC50 of blocking enzyme activity of soluble CD39,[8],3.09 nM
same,EC50 of blocking enzyme activity of soluble human CD39,[9],8.89 nM
same,"EC50 of blocking CD39 enzyme activity in human CD39 overexpression cells (ATP, CellTiter-Glo)",human CD39 on cells [10],10.1 nM
B3,Kd,[11],0.351 nM
same,koff,[11],0.000106 s⁻¹
same,kon,[11],303000 M⁻¹ s⁻¹
B4,EC50 (read off the curve),[1],~0.3 nM
same,EC50 (read off the curve),human PD-1 on cells,~10 nM
same,EC50 (read off the curve),cynomolgus PD-1 on cells,~20 nM
